The results in this text go back to article PMC10113271 (2023).

Where no end group is shown, it is not given here. The star is where a group is joined. FITC = O=C1OC2(c3ccc(O)cc3Oc3cc(O)ccc32)c2ccc(NC(=S)*)cc21; βAla = NCCC(=O)O

The target of this assay is KIX domain of CREB-binding protein (residues 586–672 of mouse CBP) (mouse, UniProt P45481 586-672). As to the kind of experiment: FP.
Chain of KIX domain of CREB-binding protein (residues 586–672 of mouse CBP) (P45481 586-672): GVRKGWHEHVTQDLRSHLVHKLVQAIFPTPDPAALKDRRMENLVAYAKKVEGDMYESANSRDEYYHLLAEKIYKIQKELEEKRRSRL

Usually Kd stands for the concentration at which binding is half-saturated. Read a low Kd as higher affinity. {FITC-βAla}-GYNDEDPEKEKRIKELELLLMSTENELKGQQAL [FITC-labeled c-Myb TAD peptide] registered a Kd of 59 nM.
